In general, Kd refers to the equilibrium constant for the complex coming apart. By koff is commonly meant the first-order rate constant of dissociation. As usually defined, the kon is the second-order rate constant of association. In general, IC50 refers to the point on the concentration scale where inhibition reaches its midpoint. As usually defined, the Ki is the dissociation constant of the complex between target and ligand, obtained from inhibition or displacement.

The record followed here is patent US20220017608A1 (Teva, published 2022).

Where no end group is shown, it is not given here. The star is where a group is joined. Biotin = O=C1N[C@H]2[C@H](CS[C@H]2CCCCC(=O)*)N1

Test [1] deals with T1, cynomolgus monkey α-CGRP (cynomolgus monkey).
T1 construct: also called cyno CGRP
As to the kind of experiment: Biacore. On the technique in general: Surface plasmon resonance follows binding to a sensor surface in real time, without labels.

Test [2] concerns the target T2, rat β-CGRP (rat, not fully specified; C-terminal amide (CONH2); N-biotinylated when captured on the Biacore chip).
T2 construct: also called β-rat
T2 peptide: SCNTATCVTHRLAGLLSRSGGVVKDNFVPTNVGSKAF
The test is described as follows: Biacore (legend of Table 1).

Test [3] addresses T3, human α-CGRP (human, C-terminal amide (CONH2); N-biotinylated when captured on the Biacore chip).
T3 construct: N-biotinylated in the Biacore assays; also called α-Hu; α-human
T3 peptide: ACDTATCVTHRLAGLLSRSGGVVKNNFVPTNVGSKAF
The test is described as follows: Biacore, ratio of KD against rat α-CGRP.

In test [4] the target is T3, human α-CGRP. As to the kind of experiment: Biacore, N-biotin-CGRP on chip, 25 C.
Test [5] has as its target T4, rat α-CGRP (rat, not fully specified; C-terminal amide (CONH2); N-biotinylated when captured on the Biacore chip).
T4 construct: also called α-Rat; α-rat
T4 peptide: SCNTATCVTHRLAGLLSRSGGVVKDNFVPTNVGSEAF
The test is described as follows: Biacore, N-biotin-CGRP on chip, 25 C.

Test [6] concerns the target T3, human α-CGRP. The test is described as follows: Biacore, N-biotin-CGRP on chip, 37 C.
Test [7] has as its target T5, human β-CGRP (human, not fully specified; C-terminal amide (CONH2); N-biotinylated when captured on the Biacore chip).
T5 construct: also called β-human
T5 peptide: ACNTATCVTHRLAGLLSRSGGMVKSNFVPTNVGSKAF
As to the kind of experiment: Biacore, N-biotin-CGRP on chip, 37 C.

Test [8] concerns the target T4, rat α-CGRP. The test is described as follows: Biacore, N-biotin-CGRP on chip, 37 C.
The target of test [9] is T2, rat β-CGRP. The test is described as follows: Biacore, N-biotin-CGRP on chip, 37 C.
Test [10] deals with T6, amylin (Homo sapiens (Human), UniProt P10997 34-70, not fully specified; Natural amylin has a C-terminal Tyr amide and a Cys2-Cys7 disulfide. The patent passages shown say nothing on this.).
T6 peptide: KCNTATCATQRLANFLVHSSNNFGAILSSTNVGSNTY
As to the kind of experiment: Biacore solution competition, chip probes free G1.

Test [11] has as its target T7, calcitonin (Homo sapiens (Human), UniProt P01258 85-116, not fully specified; Natural calcitonin has a C-terminal Pro amide and a Cys1-Cys7 disulfide. The patent passages shown say nothing on this.).
T7 peptide: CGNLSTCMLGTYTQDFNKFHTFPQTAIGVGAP
As to the kind of experiment: Biacore solution competition, chip probes free G1.

In test [12] the target is T8, adrenomedullin (Homo sapiens (Human), UniProt P35318 95-146, Natural adrenomedullin has a C-terminal Tyr amide and a Cys16-Cys21 disulfide. The patent passages shown say nothing on this.).
T8 sequence (peptide): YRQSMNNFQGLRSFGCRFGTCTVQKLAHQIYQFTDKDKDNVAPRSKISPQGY
As to the kind of experiment: Biacore solution competition, chip probes free G1.

The target in test [13] is T3, human α-CGRP. As to the kind of experiment: Biacore, N-biotinylated CGRP captured on chip, 25 C.
Test [14] concerns the target T4, rat α-CGRP. The description is as above.
Test [15] has as its target T3, human α-CGRP. The test is described as follows: blocking of human α-CGRP binding to the CGRP1-receptor in SK-N-MC cells; IC50 converted to binding sites.
For test [16], the target named is T3, human α-CGRP. As to the kind of experiment: competition binding assay on SK-N-MC cells: antibody blocks binding of human α-CGRP to the CGRP1 receptor.
In test [17] the target is T3, human α-CGRP. As to the kind of experiment: competition binding assay on SK-N-MC cells: antibody blocks binding of human α-CGRP to the CGRP1 receptor; value in IgG molecules.
The target of test [18] is T3, human α-CGRP. As to the kind of experiment: competition binding assay on SK-N-MC cells: antibody blocks binding of human α-CGRP to the CGRP1 receptor; value in binding sites.
The target in test [19] is T9, F27A (ends and bridges not checked).
T9 construct: also called HuαCGRP fragment 25-37 F27A
T9 peptide: Biotin-NNAVPTNVGSKAF
The test is described as follows: Biacore 3000, 25 °C, alanine scan: N-biotinylated peptide on SA chip, G1 Fab titrated; fold loss versus wild-type 25-37 fragment. How it is done:
(§1) Interaction analysis was conducted at 25° C. on a Biacore 3000™ system equipped with streptavidin-coated (SA) sensor chips (Biacore AB, Uppsala, Sweden) using a standard Biacore running buffer (HBS-P). […] Each amino acid between position 27-37 was then mutated individually to alanine and expressed the fold loss in affinity compared to the wild-type fragment. […] Fab fragments were titrated over the chip using 1 μM as the top concentration of a two-fold dilution series. Association and dissociation phases were monitored at 100 μl/min for 1 minute and 5 minutes respectively. Surfaces were regenerated with a mixture of 35% ethanol+25 mM NaOH+0.5M NaCl.

For test [20], the target named is T10, V28A (ends and bridges not checked).
T10 construct: also called HuαCGRP fragment 25-37 V28A
T10 peptide: Biotin-NNFAPTNVGSKAF
The description is as above. How it is done: as §1

Test [21] concerns the target T11, P29A (ends and bridges not checked).
T11 construct: also called HuαCGRP fragment 25-37 P29A
T11 peptide: Biotin-NNFVATNVGSKAF
The description is as above. On the procedure:
as §1

In test [22] the target is T12, T30A (ends and bridges not checked).
T12 construct: also called HuαCGRP fragment 25-37 T30A
T12 peptide: Biotin-NNFVPANVGSKAF
The description is as above. How it is done: as §1

Test [23] addresses T13, N31A (ends and bridges not checked).
T13 construct: also called HuαCGRP fragment 25-37 N31A
T13 peptide: Biotin-NNFVPTAVGSKAF
Described as above. On the procedure: as §1

The target of test [24] is T14, V32A (ends and bridges not checked).
T14 construct: also called HuαCGRP fragment 25-37 V32A
T14 peptide: Biotin-NNFVPTNAGSKAF
The test is described as above. On the procedure: as §1

The target of test [25] is T15, K35A (ends and bridges not checked).
T15 construct: also called HuαCGRP fragment 25-37 K35A
T15 peptide: Biotin-NNFVPTNVGSAAF
The test is described as above. How it is done:
as §1

For test [26], the target named is T2, rat β-CGRP. The test is described as follows: Biacore (legend of Table 1), rat β-CGRP.

B1: antibody G1 (antibody, human IgG2, kappa, V domains shown)
VH: EVQLVESGGGLVQPGGSLRLSCAASGFTFSNYWISWVRQAPGKGLEWVAEIRSESDASATHYAEAVKGRFTISRDNAKNSLYLQMNSLRAEDTAVYYCLAYFDYGLAIQNYWGQGTLVTVSS
VL: EIVLTQSPATLSLSPGERATLSCKASKRVTTYVSWYQQKPGQAPRLLIYGASNRYLGIPARFSGSGSGTDFTLTISSLEPEDFAVYYCSQSYNYPYTFGQGTKLEIKR
notes: Humanized IgG2 delta-a antibody derived from muMAb7E9; also called anti-CGRP antibody G1
In the case of B1, the Kd worked out at 0.063 nM in [1]; 0.1 nM in [2]; 0.042 nM in test [4]; 1.22 nM in test [5]; 0.063 nM in [6]; 0.155 nM in test [7]. Further, the Kd in test [8] was 2.57 nM; in test [9], 0.152 nM; in test [13] it was 0.04 nM; in [14], 1.2 nM. In addition, the “fold more potent affinity than for rat α-CGRP” value in test [3] stood at 40 fold. The T1/2 stood at 24.7 h in test [4]; 3.12 h in [5]; 5.3 h in test [6]; 2.76 h in test [7]; 0.48 h in [8]; 2.45 h in [9]. Besides, the koff came out at 7.8e-06 s⁻¹ in test [4]; 6.18e-05 s⁻¹ in test [5]; 3.63e-05 s⁻¹ in test [6]; 6.98e-05 s⁻¹ in [7]; 0.000399 s⁻¹ in test [8]; 7.85e-05 s⁻¹ in test [9]. In addition, the kon in test [4] was determined as 186000 M⁻¹ s⁻¹; in [5], 50800 M⁻¹ s⁻¹; in test [6] it was 587000 M⁻¹ s⁻¹; in test [7], 451000 M⁻¹ s⁻¹; in test [8] it was 155000 M⁻¹ s⁻¹; in [9] it was 516000 M⁻¹ s⁻¹. In addition, the binding result in [10], in [11] and in test [12] was “no binding (tested: an excess)” throughout. In addition, the IC50 in test [15] worked out at 1.2 nM; in [18], 1.8 nM. Moreover, in test [16], the “IC50 (read off the curve)” value is around 0.1 µg/mL. Further, the Ki in test [17] was 0.37 nM; in test [18], 0.74 nM.

B2: Fab fragments of antibody G1 (Fab, V domains shown)
VH: EVQLVESGGGLVQPGGSLRLSCAASGFTFSNYWISWVRQAPGKGLEWVAEIRSESDASATHYAEAVKGRFTISRDNAKNSLYLQMNSLRAEDTAVYYCLAYFDYGLAIQNYWGQGTLVTVSS
VL: EIVLTQSPATLSLSPGERATLSCKASKRVTTYVSWYQQKPGQAPRLLIYGASNRYLGIPARFSGSGSGTDFTLTISSLEPEDFAVYYCSQSYNYPYTFGQGTKLEIK
notes: 'Purified Fab fragments of antibody G1 were generated'; also called G1 Fab
With B2, the “Fold loss in affinity” value turned out to be 1.4 fold in test [19]; 1 fold in [20]; 2.8 fold in test [21]; 1.7 fold in test [22]; 1.9 fold in test [23]; 6.1 fold in [24]. Further, the “Fold loss in affinity” value in test [25] was 8.1 fold.

B3: antibody G2 (antibody, V domains shown)
VH: EVQLQQSGPELVKPGASVKMSCKASGYTFTSSVMHWVKQKPGQGLEWIGYINPYNDGTKYNEKFKGKATLTSDKSSSTAYMELSSLTSEDSAVYYCAKGGNDGYWGQGTTLTVSS
VL: EIVLTQSPTTMAASPGEKITITCSASSSISSIYLHWYQQKPGFSPKVLIYRASNLASGVPARFSGSGSGTSYSLTIGTMEAEDVATYYCQQGSTIPFTFGSGTKLEIKR
notes: Anti-rat CGRP mouse monoclonal antibody (Wong et al. 1993); also called RN4901
As for B3, the Kd stood at 17 nM in test [26], 17 nM in test [13] and 1 nM in [14]. This molecule also showed an IC50 in [15] of 37 nM.
